Test results from publication PMC6628679 (2019).

Molecular target: the molecule itself

B1: PfPKG (protein)
chain: MEEDDNLKKGNERNKKKAIFSNDDFTGEDSLMEDHLELREKLSEDIDMIKTSLKNNLVCSTLNDNEILTLSNYMQFFVFKSGNLVIKQGEKGSYFFIINSGKFDVYVNDKKVKTMGKGSSFGEAALIHNTQRSATIIAETDGTLWGVQRSTFRATLKQLSNRNFNENRTFIDSVSVFDMLTEAQKNMITNACVIQNFKSGETIVKQGDYGDVLYILKEGKATVYINDEEIRVLEKGSYFGERALLYDEPRSATIIAKEPTACASICRKLLNIVLGNLQVVLFRNIMTEALQQSEIFKQFSGDQLNDLADTAIVRDYPANYNILHKDKVKSVKYIIVLEGKVELFLDDTSIGILSRGMSFGDQYVLNQKQPFKHTIKSLEVCKIALITETCLADCLGNNNIDASIDYNNKKSIIKKMYIFRYLTDKQCNLLIEAFRTTRYEEGDYIIQEGEVGSRFYIIKNGEVEIVKNKKRLRTLGKNDYFGERALLYDEPRTASVISKVNNVECWFVDKSVFLQIIQGPMLAHLEERIKMQDTKVEMDELETERIIGRGTFGTVKLVHHKPTKIRYALKCVSKRSIINLNQQNNIKLEREITAENDHPFIIRLVRTFKDSKYFYFLTELVTGGELYDAIRKLGLLSKSQAQFYLGSIILAIEYLHERNIVYRDLKPENILLDKQGYVKLIDFGCAKKVQGRAYTLVGTPHYMAPEVILGKGYGCTVDIWALGICLYEFICGPLPFGNDEEDQLEIFRDILTGQLTFPDYVTDTDSINLMKRLLCRLPQGRIGCSINGFKDIKDHPFFSNFNWDKLAGRLLDPPLVSKSETYAEDIDIKQIEEEDAEDDEEPLNDEDNWDIDF
Protein B1 has a Kd of ~32 µM.
